Measurements from PMC11773018.

Assays:
human factor H (human) [1] = target: human factor H (human) (UniProt P08603); assay: SPR; human FH conjugated to a CM5 chip; untagged CspZ treated with 100 uM EDTA and dialysed against PBS, one concentration (2 uM in methods and legend, 1 uM in the table's footnote), flow rate 10 ul/min, 25 C, Biacore T200, 1:1 Langmuir model
human factor H (human) [2] = target: human factor H (human) (UniProt P08603); assay: SPR; human FH conjugated to a CM5 chip; untreated (PBS) untagged CspZ at one concentration (2 uM in methods and legend, 1 uM in the table's footnote) flowed in PBS at 10 ul/min, 25 C, Biacore T200, 1:1 Langmuir model
human factor H (human) [3] = target: human factor H (human) (UniProt P08603); assay: SPR; human FH conjugated to a CM5 chip; untagged CspZ treated with 100 uM EDTA and dialysed against PBS, one concentration (2 uM in methods and legend, 1 uM in the table's footnote), flow rate 30 ul/min, 25 C, Biacore T200, 1:1 Langmuir model
[4] = target: human complement factor H (human) (UniProt P08603); assay: SPR; human FH conjugated to a CM5 chip; untreated untagged CspZ flowed in PBS at 10 μl/min, 25 °C; Biacore T200; 1:1 Langmuir model
human factor H (human) [5] = target: human factor H (human) (UniProt P08603); assay: SPR; human FH conjugated to a CM5 chip; untreated (PBS) untagged CspZ at one concentration (2 uM in methods and legend, 1 uM in the table's footnote) flowed in PBS at 30 ul/min, 25 C, Biacore T200, 1:1 Langmuir model
human factor H (human) [6] = target: human factor H (human) (UniProt P08603); assay: SPR; human FH conjugated to a CM5 chip; untagged CspZ treated with 100 uM EDTA and dialysed against PBS, one concentration (2 uM in methods and legend, 1 uM in the table's footnote), flow rate 100 ul/min, 25 C, Biacore T200, 1:1 Langmuir model
[7] = target: human complement factor H (human) (UniProt P08603); assay: SPR; human FH conjugated to a CM5 chip; untagged CspZ treated with 100 μM EDTA and dialysed against PBS, flowed in EDTA-treated PBS (100 μM) at 10 μl/min, 25 °C; 1:1 Langmuir model
human factor H (human) [8] = target: human factor H (human) (UniProt P08603); assay: SPR; human FH conjugated to a CM5 chip; untreated (PBS) untagged CspZ at one concentration (2 uM in methods and legend, 1 uM in the table's footnote) flowed in PBS at 100 ul/min, 25 C, Biacore T200, 1:1 Langmuir model
human factor H (human) [9] = target: human factor H (human) (UniProt P08603); assay: SPR; human FH conjugated to a CM5 chip; EDTA-treated, PBS-dialysed untagged CspZB31 then treated with 100 uM zinc (EDTA-Zn), one concentration (2 uM in methods and legend, 1 uM in the table's footnote), flow rate 10 ul/min, 25 C, Biacore T200, 1:1 Langmuir model
[10] = target: human complement factor H (human) (UniProt P08603); assay: SPR; human FH conjugated to a CM5 chip; EDTA-treated, PBS-dialysed untagged CspZ then incubated with 100 μM zinc, flowed in zinc-treated PBS (100 μM) at 10 μl/min, 25 °C; 1:1 Langmuir model
human factor H (human) [11] = target: human factor H (human) (UniProt P08603); assay: SPR; human FH conjugated to a CM5 chip; EDTA-treated, PBS-dialysed untagged CspZB31 then treated with 100 uM zinc (EDTA-Zn), one concentration (2 uM in methods and legend, 1 uM in the table's footnote), flow rate 30 ul/min, 25 C, Biacore T200, 1:1 Langmuir model
human factor H (human) [12] = target: human factor H (human) (UniProt P08603); assay: SPR; human FH conjugated to a CM5 chip; EDTA-treated, PBS-dialysed untagged CspZB31 then treated with 100 uM zinc (EDTA-Zn), one concentration (2 uM in methods and legend, 1 uM in the table's footnote), flow rate 100 ul/min, 25 C, Biacore T200, 1:1 Langmuir model

Substance	Kd (human factor H (human) [1]) [µM]	koff (human factor H (human) [1]) [s⁻¹]	kon (human factor H (human) [1]) [M⁻¹ s⁻¹]	Kd (human factor H (human) [2]) [µM]	koff (human factor H (human) [2]) [s⁻¹]	kon (human factor H (human) [2]) [M⁻¹ s⁻¹]	Kd (human factor H (human) [3]) [µM]	koff (human factor H (human) [3]) [s⁻¹]	kon (human factor H (human) [3]) [M⁻¹ s⁻¹]	Kd [4] [µM]	koff [4] [s⁻¹]	kon [4] [M⁻¹ s⁻¹]	Kd (human factor H (human) [5]) [µM]	koff (human factor H (human) [5]) [s⁻¹]	kon (human factor H (human) [5]) [M⁻¹ s⁻¹]	Kd (human factor H (human) [6]) [µM]	koff (human factor H (human) [6]) [s⁻¹]	kon (human factor H (human) [6]) [M⁻¹ s⁻¹]	Kd [7] [µM]	koff [7] [s⁻¹]	further results
CspZ from Borrelia afzelii VS461, untagged (natural protein)	0.48	0.004	10700	0.37	0.004	10800	0.43	0.003	9160	0.37	0.0034	9420	0.38	0.004	10800	0.11	0.004	11100	0.47	0.0045	kon [7]: 10600 M⁻¹ s⁻¹; Kd (human factor H (human) [8]): 0.34 µM; koff (human factor H (human) [8]): 0.003 s⁻¹; kon (human factor H (human) [8]): 10500 M⁻¹ s⁻¹
CspZ from Borrelia burgdorferi B31, untagged (natural protein)	3.37	0.012	4560	0.23	0.016	68800	3.73	0.021	5790	0.34	0.021	66600	0.27	0.017	63200	3.67	0.017	4830	3.05	0.012	Kd (human factor H (human) [9]): 0.62 µM; koff (human factor H (human) [9]): 0.037 s⁻¹; kon (human factor H (human) [9]): 60900 M⁻¹ s⁻¹; Kd [10]: 0.68 µM; koff [10]: 0.035 s⁻¹; kon [10]: 51200 M⁻¹ s⁻¹; Kd (human factor H (human) [11]): 0.57 µM; koff (human factor H (human) [11]): 0.034 s⁻¹; kon (human factor H (human) [11]): 61700 M⁻¹ s⁻¹; kon [7]: 4370 M⁻¹ s⁻¹; Kd (human factor H (human) [12]): 0.66 µM; koff (human factor H (human) [12]): 0.044 s⁻¹; kon (human factor H (human) [12]): 66600 M⁻¹ s⁻¹; Kd (human factor H (human) [8]): 0.25 µM; koff (human factor H (human) [8]): 0.017 s⁻¹; kon (human factor H (human) [8]): 69200 M⁻¹ s⁻¹
CspZ from Borrelia burgdorferi B408, untagged (natural protein)	0.48	0.007	15700	0.55	0.008	16500	0.48	0.006	13600	0.54	0.0079	14100	0.53	0.007	13600	0.5	0.008	16700	0.49	0.0071	kon [7]: 13900 M⁻¹ s⁻¹; Kd (human factor H (human) [8]): 0.54 µM; koff (human factor H (human) [8]): 0.006 s⁻¹; kon (human factor H (human) [8]): 13200 M⁻¹ s⁻¹
